In the nanobody polyreactivity screen of Harvey et al. (2022):

Assay: yeast display, Sf9 membrane polyspecificity reagent, FACS + sequencing; frameworks hold sequencing errors
Procedure, shortened: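 In a synthetic yeast display library (Saccharomyces cerevisiae BJ5465), nanobody expression was induced with galactose for 36–48 hours. FACS gates were set low and high (top ~1%) using anti-HA fluorescence for expression and streptavidin fluorescence for binding of the Sf9 membrane reagent. Each polyreactivity label is drawn from the gate of origin.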

Sequence | polyreactivity (PSR sort gate)
QVQLVESGGGLDQAGGSLSLSCAASGLIINSNTMGWYRQAPGKERELVAVINWRGGRTYYADSVKGRFTISRDNAKNTVDLQMNSLKPEDTAVYYCAAYLHGARYGYWGQGTQVTVSS | high polyreactivity
QVQLVESGGGLDQAGRSLRLSCAASGRTDVTYAMGWYRQAPGKEREFVAAISASGGTTYYADSVKGRFTISRDNSKNTVYLQMNSRKPEDTAVYYCAADIRGTVYLSSFWMEYWGQGTQVNVSS | low polyreactivity
QVQLVESGGGLDQAGVSLRLSCAASGSTFRIYAMGWYRPAPGKERELVAAISRSGGSTYYADSVKGRFTISRDNAKNTVYLQMNSLKPEDTAVYYCAALSVASRWFGRGTGGYWGQGTQVTVSS | high polyreactivity
QVQLVESGGGLDQAGVSLRLSSAASGSTFVRNAMGCYRQAPGKEREWVAAINIGGSTYYADSVKGRFTISRDNAKNTVYLQMNSLKPEDTAVYYFAARIKYRYDWGQGTQVTVSS | low polyreactivity
QVQLVESGGGLDQARGSLRLSCAASAPTFNSNAMGWYRQAPGKERDLVADINGGGSTYYADSVKGRFTISRDNAKNTVYLQMNSLKPEDTAVYYCAKCYTWYVWYPHGYWGQGTQVTVSS | low polyreactivity
QVQLVESGGGLDQARGSLRLSCAASGGIFDHNAMGWYRQAPGKEREFVAAITWSGGGTYYADSVKGRFTISRDNAKNTVYLQMNSLKPEDTAVYYCAATVYGIYYYGKDRYDYWGQGTQVTVSS | low polyreactivity
QVQLVESGGGLDQARGSLRLSCAASGRIFRSYVMGWYRQAPWKERELVAAISWRGGSTYADSVKGRFTISRDNAKNTVYLQMNSLKPEDTAVYYCAARGPYTYRRYCYWGQGTQVTVSS | high polyreactivity
QVQLVESGGGLDQARGSLRLSCAASGSTFYLYAMGWYRQAPGKERELVAAISSGGRTYYADSVKGRFTISRDNAKNTVYLQMNSLKPEDTAVYYCAKVYRRRYYWGQGTQVTVSS | high polyreactivity
QVQLVESGGGLDQARGSLRLSCAASGTTIGGNAMGWYRQAPGKERELVAAIDSGGSTYADSVKGRFTISRDNAKKTVYVQMNSLKPEDTAVYYCAAVWEFVHFWSFDYWGQGTQVTVSS | low polyreactivity
QVQLVESGGGLDQARGSLRLSCPASGFIFTDYAMGWYRQAPGKERELVAGISGSGGRTYYADSVKGRFTISRDNAKNTVYLQMNSLKPEDTAVYYCAARGVPWLWYFRGMYWGQGTQVTVSS | high polyreactivity
QVQLVESGGGLDQSGGSLRLTCAASGFTFVINDMGRYIHAPGKEMEWVADITSGGDTYYADSVKGRFTISRDNAKNTVYLQSNRLKPEDTAVYYCAADIYPDWIYLLYGYWGQGTQVNVSS | low polyreactivity
QVQLVESGGGLEQAGGSLRLTWAASGRIFYVYAMGLYIQAPGKERELVAAITWRGGTTYYADSVKGRFTISRDNAQNTVYLEMNSLKPEDTAVYYCNAKYFRSYYSIEYDYWGQGTQVTVSS | low polyreactivity
QVQLVESGGGLFHAGGSLRLSCAASGSTFSRNAMGWYIPAPGKEREFVAAISWSGSSTYYADSVKGRFTISRDNAKNTVYLQMNSLKPEDTAVYYCAARSYYDGFYYWGQGTQVTVSS | high polyreactivity
QVQLVESGGGLFKAGGSLRLRCAPSGSIFDYNTMAWYRQAPGKERQFVAAISSARGGTSYADSVKGRFTISRDNAKNTVYLQMNSLKPEDTAVYYCAALIILTPYQRQYWKYGAYFYWGQGTQVTVSS | high polyreactivity
QVQLVESGGGLFKAGGSLRLSCAASGRIFEKYAMGWYRQAPGKERELVAAISYSGGSTYYADSVKGRFTISRDNAKNTVYFQMNCLKPEDTAVYYCARYSRTQAYDYWGQGTQVTVSS | high polyreactivity
QVQLVESGGGLFQAGGILRLSCAASGRTFHRNAMGWYRLAPGKERELVAAITGDGRTNYADSVKGRFTISRDNAKNTVYLQMNSLKPEDTAVYYCAARFSYRSYDYWGQGSQVTVSS | low polyreactivity
QVQLVESGGGLFQAGGRLRLSCAASGRNCNAYTMGWYRQAPGKERELVAAISRRGGSTYYADSVKGRFTISRDNAQNTVSLQMNSLNPEDTAVYYCATKSQYDYDYWGQGTQVTVSS | high polyreactivity
QVQLVESGGGLFQAGGRLRLSCAPSGGTLPKYAMAWYRHAPGKERELVARITWNDGTTYYADSVKGRFTISRDNAKNTVYLQMNSLIPEDTAVYYCNTDRAYWFLYPFSYYYWGQGTQVTVSS | low polyreactivity
QVQLVESGGGLFQAGGSLRISCAASGGTFFRYAMGWYRQAPGKERELVAAITWSSGSTYYADSVKGRFTISRDNAKNTGYLQMNSLKPEDTAVYYYDYYTYGDYWGQGTEVTVSS | low polyreactivity
QVQLVESGGGLFQAGGSLRLICAASGRTYYAYARGWYRQAPGKERELVAAITSGGSTYYADSVKGRFTISRDNAKNTVYLQMNSLKPEDTAVYYCNAGYYQWPFSGYDYWGQGTQVTVSS | low polyreactivity
QVQLVESGGGLFQAGGSLRLICADSGRTFGYNAMGWYRKATGKDRELVAAINWSGASTYYADSVKGRFTISRDNAKNTVYLQMNCLKPEDTAVYYCAAAYSYIYGFDYWGQGTQVTVSS | low polyreactivity
